Test results taken from patent US20240240209A1, “SYNTHESIS OF ENANTIOPURE CIS-A-IRONE FROM A RENEWABLE CARBON SOURCE” (Agency for Science, Technology and Research, priority 2021, published 2024).
Substitutions are numbered along the chain they refer to. Numbers in names are those of the source.

B1: D176R (protein)
chain: MPQEARTPQQQVTADEVGDWYDKFGEVYHLTLGESVHCGLWFPPDAPVPQDMELVTMSSQAQDRFTDYLIETLDPKAGQHLLDIGCGTGRPALKAARQRGIAVTGVAVSKEQIAAANRLAAGHGLTERLTFEVADAMRLPYEDESFDCAWAIESLDHMDRAKALGEAWRVLKPGGRLLVAEEVVTEELTEPETALFETLFALNVPPRLGEFFDIVSGAGFHTLSLKDLSADLAMTMNVFALGVYSRRAEFTERFGAEFVDGLLAGLGSAQETVIRKTRFFMATLRKPAV
modifications: Modified from pMT1
B2: T13Q (protein)
chain: B1 chain with T13Q, R176D
modifications: Modified from pMT1
B3: T13A (protein)
chain: B1 chain with T13A, R176D
modifications: Modified from pMT1
B4: T13G (protein)
chain: B1 chain with T13G, R176D
modifications: Modified from pMT1
B5: L195V (protein)
chain: B1 chain with R176D, L195V
modifications: Modified from pMT1
B6: T126S (protein)
chain: B1 chain with T126S, R176D
modifications: Modified from pMT1
B7: V12A (protein)
chain: B1 chain with V12A, R176D
modifications: Modified from pMT1
B8: H123S (protein)
chain: B1 chain with H123S, R176D
modifications: Modified from pMT1
B9: V12G (protein)
chain: B1 chain with V12G, R176D
modifications: Modified from pMT1
B10: A14M (protein)
chain: B1 chain with A14M, R176D
modifications: Modified from pMT1
B11: T126E (protein)
chain: B1 chain with T126E, R176D
modifications: Modified from pMT1
B12: L129C (protein)
chain: B1 chain with L129C, R176D
modifications: Modified from pMT1
B13: E127G (protein)
chain: B1 chain with E127G, R176D
modifications: Modified from pMT1
B14: T13L (protein)
chain: B1 chain with T13L, R176D
modifications: Modified from pMT1
B15: T13M (protein)
chain: B1 chain with T13M, R176D
modifications: Modified from pMT1
B16: P191K (protein)
chain: B1 chain with R176D, P191K
modifications: Modified from pMT1
B17: V12K (protein)
chain: B1 chain with V12K, R176D
modifications: Modified from pMT1
B18: M137A (protein)
chain: B1 chain with M137A, R176D
modifications: Modified from pMT1
B19: L129V (protein)
chain: B1 chain with L129V, R176D
modifications: Modified from pMT1
B20: M137G (protein)
chain: B1 chain with M137G, R176D
modifications: Modified from pMT1
B21: L129K (protein)
chain: B1 chain with L129K, R176D
modifications: Modified from pMT1
B22: E190Q (protein)
chain: B1 chain with R176D, E190Q
modifications: Modified from pMT1
B23: E192S (protein)
chain: B1 chain with R176D, E192S
modifications: Modified from pMT1
B24: H123Q (protein)
chain: B1 chain with H123Q, R176D
modifications: Modified from pMT1
B25: Q11W (protein)
chain: B1 chain with Q11W, R176D
modifications: Modified from pMT1
B26: P191I (protein)
chain: B1 chain with R176D, P191I
modifications: Modified from pMT1
B27: P191Y (protein)
chain: B1 chain with R176D, P191Y
modifications: Modified from pMT1
B28: L195I (protein)
chain: B1 chain with R176D, L195I
modifications: Modified from pMT1
B29: P191L (protein)
chain: B1 chain with R176D, P191L
modifications: Modified from pMT1
B30: E190P, G122S (protein)
chain: B1 chain with G122S, R176D, E190P
B31: Q60R (protein)
chain: B1 chain with Q11H, R176D
modifications: Modified from pMT1
B32: Q60K (protein)
chain: B1 chain with Q60R, P91T, D156C, R176D, D231N
modifications: Modified from pMT1

Experiment: In-vivo cis-α-irone production screening of pMT7 and pMT12 mutants
Assay type: cell-based, Escherichia coli
Conditions: mutations made to pMT12; normalized to pMT12 (=1)
Excerpt: Q60 was identified as another possible mutation site.
FIGS. 24a and 24b show the in-vivo and in-vitro cis-α-irone production of other possible single mutations to pMT12. The in-vitro results in FIG. 24b validate the mutations and in-vivo results in FIG. 24a. The mutations in FIG. 24 include Q11H (SEQ ID No. 23), V12R (SEQ ID No. 24), A95C (SEQ ID No. 25), H123Q (SEQ ID No. 26), E127T (SEQ ID No. 27), M137T (SEQ ID No. 28), D176V (SEQ ID No. 29), D176Y (SEQ ID No. 30). P191S (SEQ ID No. 31), P191V (SEQ ID No. 32), F212L (SEQ ID No. 33), S268H (SEQ ID No. 34), AND T272A (SEQ ID No. 35). The screening results in FIGS. 24 and 25 are semi-quantitative to identify beneficial mutants that give greater than one-fold change of irone production as compared to pMT12.
FIGS. 25a to 25c (and Table 4) show the in-vivo testing results of other possible mutations that may be made to pMT12 to improve its in-vivo production of cis-α-irone. FIGS. 25a to 25c each include two dotted lines to account for a 10% error bar to show the normalized fold change of 0.9 and 1.1.
The four plasmids were transformed into E. coli BL21 (DE3), ΔaroA, ΔaroB, ΔaroC, ΔserC or E. coli BL21 (DE3), ΔaroA, ΔaroB, ΔaroC, ΔserC, ΔmetJ strains and plated on Agar plate containing LB media (10 g, tryptone. 5 g, yeast extract. 10 g, NaCl) supplemented with appropriate antibiotics (100 mg/L ampicillin, 34 mg/L chloramphenicol, 50 mg/L kanamycin, and 100 mg/L spectinomycin). One colony was picked and inoculate into LB media with antibiotics. 1% of overnight culture was inoculated into 1 ml fresh auto-inducing chemically defined media. The chemical media contains carbon source solution: 0.5 g/L glucose, 10 g/L glycerol; inducer: 30 mM lactose and base media: 2 g/L ammonium sulfate, 4.2 g/L KH2PO4, 11.24 g/L K2HPO4, 1.7 g/L citric acid, 0.5 g/L MgSO4, and 10 mL/L trace element solution. The trace element solution (100×) contained 0.25 g/L CoCl2·6H2O, 1.5 g/L MnSO4·4H2O, 0.15 g/L CuSO4·2H2O, 0.3 g/L H3BO3, 0.25 g/L Na2MoO4·2H2O, 0.8 g/L Zn(CH3COO)2, 5 g/L Fe(III) citrate, and 0.84 g/L ethylenediaminetetra-acetic acid (EDTA) at pH 8.0. The culture was grown at 28° C. for 3 days and the products were extracted with 1 ml hexane for GCMS analysis. An example of a fed-batch process for α-ionone Is briefly described, overnight culture was inoculated into 2 L chemical media comprising the base media and 5 g/L glucose, at 37° C. and 30% DO. pH was controlled at 7 with base solution (14% ammonia and 0.5 M NaOH). Feed media (500 g/L glucose and 5 g/L MgSO4) was added into bioreactor once OD600 reached 5, at a rate of 7.15-25.75 g/h glucose for about 4-5 h until OD600 reached ˜30-40. Subsequently, 0.1 mM IPTG was added to induce the production, and feeding rate was kept at a constant rate of 10 g/h glucose, and the temperature was reduced to 30° C. DO was adjusted to 2% or 10%. Feeding was stopped at 113 h when 2 L feeding media was finished, but the culture was further incubated for 24 h. To capture the evaporated products, the exhaust was connected to 25 ml sunflower oil.

Compared with B1, B2 is lower in “Fold change in in-vivo cis-α-irone production” value (“Fold change” for short): 1.80 for the first, 0.93 for the second.

B3 and B4 are the same in “Fold change” value: 0.91 for the first, 0.91 for the second.

Going from B5 to B6, the “Fold change” value falls from 1.02 to 0.96.

First: B7
Second: B8
The “Fold change” value of the first is higher: 0.97 for the first, 0.84 for the second.

First: B9
Second: B10
The “Fold change” value of the first is higher: 0.97 for the first, 0.94 for the second.

Going from B11 to B12, the “Fold change” value rises from 0.88 to 1.08.

Compared with B13, B14 is lower in “Fold change” value: 0.98 for the first, 0.97 for the second.

Going from B15 to B16, the “Fold change” value rises from 0.97 to 1.26.

Compared with B17, B18 is higher in “Fold change” value: 1.00 for the first, 1.15 for the second.

First: B19
Second: B20
The “Fold change” value of the first is lower: 1.03 for the first, 1.15 for the second.

First: B21
Second: B22
The “Fold change” value of the first is lower: 1.00 for the first, 2.90 for the second.

First: B23
Second: B24
The “Fold change” value of the first is higher: 0.97 for the first, 0.87 for the second.

Compared with B25, B26 is higher in “Fold change” value: 0.90 for the first, 1.31 for the second.

Going from B27 to B28, the “Fold change” value falls from 1.29 to 1.08.

Compared with B29, B30 is lower in “Fold change” value: 1.12 for the first, 1.02 for the second.

Same assay, conditions: single mutations vs parent (pMT7 or pMT12)

In the case of B1, the “in-vivo production of cis-α-irone (in words)” value (“in-vivo production” below) is reported as “significant improvement”.
In the case of B31, the “in-vivo production” value is reported as “increased cis-α-irone production in-vivo”.
With B22 the “in-vivo production” value was “significant improvement”.
In the case of B32, the “in-vivo production” value is reported as “increased cis-α-irone production in-vivo”.
